From publication PMC6709600 (Nature, 2019)

B1: mGlu5 ECD (residues 21-569 of wild-type human metabotropic glutamate receptor subtype 5) (domain or fragment)
chain: QSSERRVVAHMPGDIIIGALFSVHHQPTVDKVHERKCGAVREQYGIQRVEAMLHTLERINSDPTLLPNITLGCEIRDSCWHSAVALEQSIEFIRDSLISSEEEEGLVRCVDGSSSSFRSKKPIVGVIGPGSSSVAIQVQNLLQLFNIPQIAYSATSMDLSDKTLFKYFMRVVPSDAQQARAMVDIVKRYNWTYVSAVHTEGNYGESGMEAFKDMSAKEGICIAHSYKIYSNAGEQSFDKLLKKLTSHLPKARVVACFCEGMTVRGLLMAMRRLGLAGEFLLLGSDGWADRYDVTDGYQREAVGGITIKLQSPDVKWFDDYYLKLRPETNHRNPWFQEFWQHRFQCRLEGFPQENSKYNKTCNSSLTLKTHHVQDSKMGFVINAIYSMAYGLHNMQMSLCPGYAGLCDAMKPIDGRKLLESLMKTNFTGVSGDTILFDENGDSPGRYEIMNFKEMGKDYFDYINVGSWDNGELKMDDDEVWSKKSNIIRSVCSEPCEKGQIKVIRKGEVSCCWTCTPCKENEYVFDEYTCKACQLGSWPTDDLTGCDLIP
B2: full-length mGlu5, HA-FLAG-human mGlu5 (21-865) with a C-terminal hexahistidine tag (receptor)
chain: QSSERRVVAHMPGDIIIGALFSVHHQPTVDKVHERKCGAVREQYGIQRVEAMLHTLERINSDPTLLPNITLGCEIRDSCWHSAVALEQSIEFIRDSLISSEEEEGLVRCVDGSSSSFRSKKPIVGVIGPGSSSVAIQVQNLLQLFNIPQIAYSATSMDLSDKTLFKYFMRVVPSDAQQARAMVDIVKRYNWTYVSAVHTEGNYGESGMEAFKDMSAKEGICIAHSYKIYSNAGEQSFDKLLKKLTSHLPKARVVACFCEGMTVRGLLMAMRRLGLAGEFLLLGSDGWADRYDVTDGYQREAVGGITIKLQSPDVKWFDDYYLKLRPETNHRNPWFQEFWQHRFQCRLEGFPQENSKYNKTCNSSLTLKTHHVQDSKMGFVINAIYSMAYGLHNMQMSLCPGYAGLCDAMKPIDGRKLLESLMKTNFTGVSGDTILFDENGDSPGRYEIMNFKEMGKDYFDYINVGSWDNGELKMDDDEVWSKKSNIIRSVCSEPCEKGQIKVIRKGEVSCCWTCTPCKENEYVFDEYTCKACQLGSWPTDDLTGCDLIPVQYLRWGDPEPIAAVVFACLGLLATLFVTVVFIIYRDTPVVKSSSRELCYIILAGICLGYLCTFCLIAKPKQIYCYLQRIGIGLSPAMSYSALVTKTNRIARILAGSKKKICTKKPRFMSACAQLVIAFILICIQLGIIVALFIMEPPDIMHDYPSIREVYLICNTTNLGVVTPLGYNGLLILSCTFYAFKTRNVPANFNEAKYIAFTMYTTCIIWLAFVPIYFGSNYKIITMCFSVSLSATVALGCMFVPKVYIILAKPERNVRSAFTTSTVVRMHVGDGKSSSAASRSSSLVNL

Assays:
crystal structure = molecular target: the molecule itself; experiment: crystal structure
cryo-EM structure = molecular target: the molecule itself; experiment: cryo-EM structure

Protein | binding result (crystal structure) | binding result (cryo-EM structure)
B1 | binds | –
B2 | – | binds
